Measured values as given in PMC4231051, “Protein Thermal Stability Enhancement by Designing Salt Bridges: A Combined Computational and Experimental Study” (PLoS ONE, 2014).
Positions count from the first letter of the chain named. Numbers in names are those of the source.

B1: β-glucosidase A (BglA) from Bacillus polymyxa, wild type (enzyme)
chain: TIFQFPQDFMWGTATAAYQIEGAYQEDGRGLSIWDTFAHTPGKVFNGDNGNVACDSYHRYEEDIRLMKELGIRTYRFSVSWPRIFPNGDGEVNQEGLDYYHRVVDLLNDNGIEPFCTLYHWDLPQALQDAGGWGNRRTIQAFVQFAETMFREFHGKIQHWLTFNEPWCIAFLSNMLGVHAPGLTNLQTAIDVGHHLLVAHGLSVRRFRELGTSGQIGIAPNVSWAVPYSTSEEDKAACARTISLHSDWFLQPIYQGSYPQFLVDWFAEQGATVPIQDGDMDIIGEPIDMIGINYYSMSVNRFNPEAGFLQSEEINMGLPVTDIGWPVESRGLYEVLHYLQKYGNIDIYITENGACINDEVVNGKVQDDRRISYMQQHLVQVHRTIHDGLHVKGYMAWSLLDNFEWAEGYNMRFGMIHVDFRTQVRTPKESYYWYRNVVSNNWLETRR
notes: β-glucosidase A (BglA, EC 3.2.1.21) from Bacillus polymyxa, family 1 glycosyl hydrolase; Plasmid pBglA; its vector and construct limits are not described; also called wild type enzyme; source: E. coli BL21 Star (DE3), purified (HisTrap, thrombin, HisTrap, gel filtration on Superdex 200)
B2: β-glucosidase A (BglA) from Bacillus polymyxa, N437D mutant (enzyme)
chain: B1 chain with N436D
notes: β-glucosidase A (BglA, EC 3.2.1.21) from Bacillus polymyxa with N437D, made by site-directed mutagenesis of pBglA; Same construct as m1 apart from the mutation; source: E. coli BL21 Star (DE3), purified (HisTrap, thrombin, HisTrap, gel filtration on Superdex 200)
B3: β-glucosidase A (BglA) from Bacillus polymyxa, N437E mutant (enzyme)
chain: B1 chain with N436E
notes: β-glucosidase A (BglA, EC 3.2.1.21) from Bacillus polymyxa with N437E, made by site-directed mutagenesis of pBglA; Same construct as m1 apart from the mutation; source: E. coli BL21 Star (DE3), purified (HisTrap, thrombin, HisTrap, gel filtration on Superdex 200)

Target: the molecule itself
Test: SEC; gel filtration during purification (HiLoad 26/60 Superdex 200 prep-grade), 50 mM citrate phosphate buffer, pH 7; data not shown

Protein | stoichiometry N
B1 | 8
B2 | 4
B3 | 4
